Usually Kd stands for a measure of binding affinity in units of concentration.

For data set [1], the target named is condensin II holocomplex (CII) (Homo sapiens, UniProt O95347;Q9NTJ3;P42695;Q86XI2;Q6IBW4 1-1197;1-1288;1-1498;1-1143;1-605). Put plainly: fluorescence polarization; no ATP; 75 mM NaCl; FP: 20 mM Tris pH 7.5, 75 mM NaCl, 2.5% glycerol, 1 mM DTT, room temp, 50 nM DNA; EMSA: 20 mM HEPES pH 8, 300 mM KCl, 5 mM MgCl2, 1 mM DTT, 10% glycerol, on ice; curtains: 40 mM Tris-HCl pH 7.5, 125 mM NaCl, 5 mM MgCl2, 1 mM DTT, 0.5 mg/mL BSA, 37 C. To be noted: protein: recombinant; tags: 6xHis-SMC4; CAP-H2 2xStrep; copies: 1;1;1;1;1; label: 6-FAM on reverse strand; blunt. For orientation: Fluorescence polarisation rises when a labelled molecule tumbles more slowly, as on binding a larger partner.

In data set [2] the target is condensin I holocomplex (CI) (Homo sapiens, UniProt O95347;Q9NTJ3;Q15021;Q9BPX3;Q15003 1-1197;1-1288;1-1401;1-1015;1-741). The description is as above. The settings on record: protein: recombinant; tags: 6xHis-SMC4; CAP-H 2xStrep; copies: 1;1;1;1;1; label: 6-FAM on reverse strand; blunt.

B1: 30-bp dsDNA, 6-FAM (dsDNA)
DNA 1: CTGTCACACCCTGTCACACCTGTCACAC
DNA 2: GTGTGACAGGTGTGACAGGGTGTGACAG
Take B1: the Kd was found to be 1200 ± 100 nM in data set [1] and 3000 ± 300 nM in data set [2].

The values above are taken from publication PMC7335352.
